The text below walks through data of PMC10663500.

By Kd is commonly meant a measure of binding affinity in units of concentration. The koff is the rate constant with which the complex falls apart.

In assay [1] the target is T1, mouse programmed cell death protein 1 C60S (aa 25-167) Fc fusion protein, Q02242.
T1 chain: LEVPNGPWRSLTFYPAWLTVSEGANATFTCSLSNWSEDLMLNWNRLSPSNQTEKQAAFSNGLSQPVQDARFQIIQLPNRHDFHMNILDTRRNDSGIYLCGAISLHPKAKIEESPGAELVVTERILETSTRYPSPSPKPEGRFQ
The assay is described as follows: BreviA (SPR). Conditions: chain shown with the change;, read off a plot; for Kd: parent: est. 1.2e-7 M.

The target of assay [2] is T2, human programmed cell death protein 1 C93S (aa 24-167), Q15116. The assay is described as follows: SPR. The following applies: chain shown with the change; top curve (taken as 1024 nM hPD-1), read at end of association, about 570 s; antibody immobilized as ligand; parent: est. 740; read off a plot.
The target in assay [3] is T2, human programmed cell death protein 1 …. The assay is described as follows: BreviA (SPR). Conditions: chain shown with the change;; parent: est. 910 pM; read off a plot.

T2 sequence (Q15116 24-167 C93S): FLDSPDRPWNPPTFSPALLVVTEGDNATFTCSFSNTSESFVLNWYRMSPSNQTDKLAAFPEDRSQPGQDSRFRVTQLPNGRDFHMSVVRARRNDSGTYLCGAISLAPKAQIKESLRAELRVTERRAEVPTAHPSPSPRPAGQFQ

B1: toripalimab Fab (wild-type) L:L101A (protein)
chain 1: QGQLVQSGAEVKKPGASVKVSCKASGYTFTDYEMHWVRQAPIHGLEWIGVIESETGGTAYNQKFKGRVTITADKSTSTAYMELSSLRSEDTAVYYCAREGITTVATTYYWYFDVWGQGTTVTVSS
chain 2: DVVMTQSPLSLPVTLGQPASISCRSSQSIVHSNGNTYLEWYLQKPGQSPQLLIYKVSNRFSGVPDRFSGSGSGTDFTLKISRVEAEDVGVYYCFQGSHVPATFGQGTKLEIK
Consider B1, for which, in assay [1], the equilibrium dissociation constant (Kd) was 26 nM.

B2: toripalimab Fab (wild-type) L:V99A (protein)
chain 1: QGQLVQSGAEVKKPGASVKVSCKASGYTFTDYEMHWVRQAPIHGLEWIGVIESETGGTAYNQKFKGRVTITADKSTSTAYMELSSLRSEDTAVYYCAREGITTVATTYYWYFDVWGQGTTVTVSS
chain 2: DVVMTQSPLSLPVTLGQPASISCRSSQSIVHSNGNTYLEWYLQKPGQSPQLLIYKVSNRFSGVPDRFSGSGSGTDFTLKISRVEAEDVGVYYCFQGSHAPLTFGQGTKLEIK
Take B2: the koff in assay [1] (parent: est. 5.9e-3 s-1) amounted to 0.00036 s⁻¹.

B3: toripalimab Fab (wild-type) L:P100H (protein)
chain 1: QGQLVQSGAEVKKPGASVKVSCKASGYTFTDYEMHWVRQAPIHGLEWIGVIESETGGTAYNQKFKGRVTITADKSTSTAYMELSSLRSEDTAVYYCAREGITTVATTYYWYFDVWGQGTTVTVSS
chain 2: DVVMTQSPLSLPVTLGQPASISCRSSQSIVHSNGNTYLEWYLQKPGQSPQLLIYKVSNRFSGVPDRFSGSGSGTDFTLKISRVEAEDVGVYYCFQGSHVHLTFGQGTKLEIK
B3: in assay [2], the response stood at 470 RU. Besides, the Kd in assay [1] came to 1 nM.

B4: toripalimab Fab (wild-type) L:V99G (protein)
chain 1: QGQLVQSGAEVKKPGASVKVSCKASGYTFTDYEMHWVRQAPIHGLEWIGVIESETGGTAYNQKFKGRVTITADKSTSTAYMELSSLRSEDTAVYYCAREGITTVATTYYWYFDVWGQGTTVTVSS
chain 2: DVVMTQSPLSLPVTLGQPASISCRSSQSIVHSNGNTYLEWYLQKPGQSPQLLIYKVSNRFSGVPDRFSGSGSGTDFTLKISRVEAEDVGVYYCFQGSHGPLTFGQGTKLEIK
For the molecule B4, in assay [2], the response was determined as 770 RU. Besides, the dissociation constant Kd in assay [3] turned out to be 2 nM.
